Experiment [1] deals with Flag-tagged human CHREBP fusion protein (human) (UniProt Q9NP71).
Experiment [2] concerns the target Flag-tagged human AMPK-α1 fusion protein (human) (UniProt Q13131).
The target in experiment [3] is Flag-tagged human AMPK-α2 fusion protein (human) (UniProt P54646).

From publication PMC10844593 come the findings set out here.

Chain of active CDK6/Cyclin D3 kinase (Q00534 whole entry): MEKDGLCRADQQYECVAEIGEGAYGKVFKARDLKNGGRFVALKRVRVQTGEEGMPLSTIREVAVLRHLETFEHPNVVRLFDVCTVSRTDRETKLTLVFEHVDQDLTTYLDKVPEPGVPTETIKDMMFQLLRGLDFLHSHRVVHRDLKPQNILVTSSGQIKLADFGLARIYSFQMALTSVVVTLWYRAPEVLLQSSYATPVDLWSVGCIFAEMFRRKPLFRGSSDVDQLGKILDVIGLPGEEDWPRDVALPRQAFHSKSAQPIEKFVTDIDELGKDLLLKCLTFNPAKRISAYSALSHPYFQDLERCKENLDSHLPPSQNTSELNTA
Chain of active CDK6/Cyclin D3 kinase (P30281 whole entry): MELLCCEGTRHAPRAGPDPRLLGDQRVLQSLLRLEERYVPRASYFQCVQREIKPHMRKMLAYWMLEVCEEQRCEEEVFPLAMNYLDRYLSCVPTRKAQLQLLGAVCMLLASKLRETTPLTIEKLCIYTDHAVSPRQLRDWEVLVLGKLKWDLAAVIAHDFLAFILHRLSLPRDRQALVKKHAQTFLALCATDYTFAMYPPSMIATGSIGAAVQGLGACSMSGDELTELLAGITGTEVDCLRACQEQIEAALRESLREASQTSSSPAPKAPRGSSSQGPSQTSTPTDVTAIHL
Chain of Flag-tagged human AMPK-α2 fusion protein (human) (P54646 whole entry, the tested form may be a part): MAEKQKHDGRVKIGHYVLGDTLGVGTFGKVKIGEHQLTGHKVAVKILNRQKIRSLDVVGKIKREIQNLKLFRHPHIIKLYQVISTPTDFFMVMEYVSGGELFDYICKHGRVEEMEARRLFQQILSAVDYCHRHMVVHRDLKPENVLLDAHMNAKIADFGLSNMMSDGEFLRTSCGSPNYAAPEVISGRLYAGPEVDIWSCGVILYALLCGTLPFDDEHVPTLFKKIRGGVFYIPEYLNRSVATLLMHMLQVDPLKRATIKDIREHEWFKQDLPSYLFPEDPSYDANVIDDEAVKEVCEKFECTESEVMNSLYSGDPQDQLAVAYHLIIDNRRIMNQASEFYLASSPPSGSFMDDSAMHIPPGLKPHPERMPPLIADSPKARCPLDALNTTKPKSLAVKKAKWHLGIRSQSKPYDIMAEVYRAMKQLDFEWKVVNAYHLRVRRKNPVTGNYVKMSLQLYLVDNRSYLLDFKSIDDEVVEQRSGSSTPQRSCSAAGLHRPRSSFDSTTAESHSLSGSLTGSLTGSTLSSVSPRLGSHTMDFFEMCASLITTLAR
Chain of Flag-tagged human CHREBP fusion protein (human) (Q9NP71 whole entry, the tested form may be a part): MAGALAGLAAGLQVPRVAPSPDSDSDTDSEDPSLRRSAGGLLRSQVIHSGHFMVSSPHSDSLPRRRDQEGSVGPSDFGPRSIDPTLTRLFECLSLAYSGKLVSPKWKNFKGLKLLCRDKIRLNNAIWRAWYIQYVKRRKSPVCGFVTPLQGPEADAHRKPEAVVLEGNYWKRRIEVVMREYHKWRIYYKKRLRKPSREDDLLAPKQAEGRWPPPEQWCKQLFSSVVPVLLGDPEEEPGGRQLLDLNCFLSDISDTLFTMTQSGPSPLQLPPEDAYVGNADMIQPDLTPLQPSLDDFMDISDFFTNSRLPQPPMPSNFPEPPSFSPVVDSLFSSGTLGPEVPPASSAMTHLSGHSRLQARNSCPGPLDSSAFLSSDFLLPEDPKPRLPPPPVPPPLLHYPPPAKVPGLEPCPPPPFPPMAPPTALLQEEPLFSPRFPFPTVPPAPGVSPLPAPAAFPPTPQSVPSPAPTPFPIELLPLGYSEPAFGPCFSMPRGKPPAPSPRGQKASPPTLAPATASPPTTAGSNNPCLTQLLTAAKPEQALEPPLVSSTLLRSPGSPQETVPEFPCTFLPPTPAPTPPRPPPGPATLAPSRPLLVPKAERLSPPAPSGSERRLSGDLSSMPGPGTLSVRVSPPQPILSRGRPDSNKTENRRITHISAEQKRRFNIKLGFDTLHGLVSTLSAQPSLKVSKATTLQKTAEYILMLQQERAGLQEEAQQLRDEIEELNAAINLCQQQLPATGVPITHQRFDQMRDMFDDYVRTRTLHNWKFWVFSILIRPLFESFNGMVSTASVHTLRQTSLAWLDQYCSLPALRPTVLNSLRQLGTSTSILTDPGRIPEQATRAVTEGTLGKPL
Chain of Flag-tagged human AMPK-α1 fusion protein (human) (Q13131 whole entry, the tested form may be a part): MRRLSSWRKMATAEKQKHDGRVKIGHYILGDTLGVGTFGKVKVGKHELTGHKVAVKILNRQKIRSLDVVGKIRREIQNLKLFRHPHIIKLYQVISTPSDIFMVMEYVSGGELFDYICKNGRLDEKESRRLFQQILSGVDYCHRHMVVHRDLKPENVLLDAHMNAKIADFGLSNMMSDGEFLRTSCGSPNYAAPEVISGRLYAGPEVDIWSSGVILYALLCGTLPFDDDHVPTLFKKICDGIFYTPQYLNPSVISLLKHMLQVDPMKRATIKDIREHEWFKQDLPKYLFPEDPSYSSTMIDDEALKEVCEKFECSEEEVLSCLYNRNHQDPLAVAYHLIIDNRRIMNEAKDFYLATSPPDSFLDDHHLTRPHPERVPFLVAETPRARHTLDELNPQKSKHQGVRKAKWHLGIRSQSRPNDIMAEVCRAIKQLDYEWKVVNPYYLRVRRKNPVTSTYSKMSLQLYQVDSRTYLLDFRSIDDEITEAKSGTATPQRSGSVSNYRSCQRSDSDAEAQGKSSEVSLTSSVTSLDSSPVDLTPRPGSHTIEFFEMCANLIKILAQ

For “active CDK6/Cyclin D3 kinase (from UniProt Q00534 1-326; P30281 1-292) (complex)”, the fold increase in total spectrum counts (TSC) of phosphorylated peptides of the substrate after in vitro kinase reaction with CDK6/D3 (mass spectrometry) came out at 6.43 fold in experiment [1], 14.7 fold in experiment [2] and 46.8 fold in experiment [3].
